Legend:
APG08290.1 = biological target: T1, APG08290.1 (Bacillus sp.); assay: cell_activity; editing rate HEK293T; PAM not stated
T1 chain: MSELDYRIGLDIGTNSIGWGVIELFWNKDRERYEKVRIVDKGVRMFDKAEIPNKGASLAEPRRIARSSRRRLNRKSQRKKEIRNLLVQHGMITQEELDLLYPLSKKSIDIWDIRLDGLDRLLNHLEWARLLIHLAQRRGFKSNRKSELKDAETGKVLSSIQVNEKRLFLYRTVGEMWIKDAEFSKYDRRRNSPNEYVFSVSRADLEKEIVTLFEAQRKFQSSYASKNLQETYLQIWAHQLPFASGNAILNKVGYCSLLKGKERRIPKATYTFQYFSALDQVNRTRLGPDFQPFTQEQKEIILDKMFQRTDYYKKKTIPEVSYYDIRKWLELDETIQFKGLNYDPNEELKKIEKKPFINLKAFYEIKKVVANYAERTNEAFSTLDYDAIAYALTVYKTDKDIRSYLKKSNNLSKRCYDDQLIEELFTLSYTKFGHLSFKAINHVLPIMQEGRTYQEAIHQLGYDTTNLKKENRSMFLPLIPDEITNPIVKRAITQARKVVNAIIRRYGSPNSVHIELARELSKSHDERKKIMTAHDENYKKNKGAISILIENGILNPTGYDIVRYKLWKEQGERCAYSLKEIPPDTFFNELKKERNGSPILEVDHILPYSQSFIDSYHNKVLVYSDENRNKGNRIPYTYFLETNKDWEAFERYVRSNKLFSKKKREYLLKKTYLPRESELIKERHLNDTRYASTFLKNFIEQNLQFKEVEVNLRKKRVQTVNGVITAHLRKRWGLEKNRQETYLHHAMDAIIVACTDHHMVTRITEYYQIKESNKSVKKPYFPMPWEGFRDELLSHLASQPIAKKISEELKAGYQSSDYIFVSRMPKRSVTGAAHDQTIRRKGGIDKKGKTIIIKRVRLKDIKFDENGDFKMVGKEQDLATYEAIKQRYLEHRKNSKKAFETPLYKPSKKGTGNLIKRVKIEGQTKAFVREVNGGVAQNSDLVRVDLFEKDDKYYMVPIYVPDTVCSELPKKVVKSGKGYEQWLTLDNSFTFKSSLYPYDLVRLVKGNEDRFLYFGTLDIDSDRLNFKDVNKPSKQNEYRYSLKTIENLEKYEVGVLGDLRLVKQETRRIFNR
From the text: (§1) Through alignment with closely related homologs, a unique 8 amino acid region at positions 590-597 was identified in APG07433.1 and its close homolog APG08290.1 (described in WO 2019/236566 and set forth herein as SEQ ID NO: 60). This region, set forth as SEQ ID NO: 365 for APG07433.1 and SEQ ID NO: 367 for APG08290.1, was removed from both proteins, resulting in variant RGNs APG07433.1-del (SEQ ID NO: 366) and APG08290.1-del (SEQ ID NO: 368). These deletion variants and their corresponding wild-type RGNs were assayed for editing activity in HEK293T cells using the guide RNAs indicated in Tables 32 and 33 following methods similar to those described in Example 1.

APG08290.1-del = biological target: T2, APG08290.1-del; assay: as above
T2 chain: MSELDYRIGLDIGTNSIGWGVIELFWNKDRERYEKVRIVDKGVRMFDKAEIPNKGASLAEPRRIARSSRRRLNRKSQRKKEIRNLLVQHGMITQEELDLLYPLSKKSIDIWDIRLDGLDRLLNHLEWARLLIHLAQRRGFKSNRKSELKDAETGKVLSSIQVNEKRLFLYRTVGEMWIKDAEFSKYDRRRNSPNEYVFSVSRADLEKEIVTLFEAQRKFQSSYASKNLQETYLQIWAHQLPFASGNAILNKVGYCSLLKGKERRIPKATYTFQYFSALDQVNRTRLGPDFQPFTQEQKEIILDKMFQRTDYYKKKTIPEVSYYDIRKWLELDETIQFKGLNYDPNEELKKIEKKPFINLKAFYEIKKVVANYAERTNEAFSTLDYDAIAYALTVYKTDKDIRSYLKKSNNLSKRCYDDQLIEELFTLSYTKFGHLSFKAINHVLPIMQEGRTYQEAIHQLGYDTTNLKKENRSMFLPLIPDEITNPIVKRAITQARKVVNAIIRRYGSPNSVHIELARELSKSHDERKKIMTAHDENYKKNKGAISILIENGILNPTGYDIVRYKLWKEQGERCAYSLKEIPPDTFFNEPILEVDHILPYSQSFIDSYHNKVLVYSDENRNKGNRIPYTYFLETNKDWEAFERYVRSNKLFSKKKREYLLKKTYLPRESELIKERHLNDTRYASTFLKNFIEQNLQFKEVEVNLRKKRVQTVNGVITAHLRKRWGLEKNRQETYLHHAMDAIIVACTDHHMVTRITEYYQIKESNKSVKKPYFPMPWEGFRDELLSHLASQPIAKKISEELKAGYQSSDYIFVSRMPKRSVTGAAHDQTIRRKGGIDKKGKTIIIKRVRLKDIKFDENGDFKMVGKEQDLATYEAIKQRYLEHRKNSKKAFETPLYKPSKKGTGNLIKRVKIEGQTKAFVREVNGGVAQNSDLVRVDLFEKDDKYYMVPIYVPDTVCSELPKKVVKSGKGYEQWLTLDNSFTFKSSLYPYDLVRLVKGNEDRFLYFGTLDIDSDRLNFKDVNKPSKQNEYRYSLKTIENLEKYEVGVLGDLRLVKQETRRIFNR
From the text: as §1

[1] = biological target: T3, APG07433.1-del (residues 590-597 deleted); assay: cell_activity; editing rate HEK293T; PAM 3' of target
T3 chain: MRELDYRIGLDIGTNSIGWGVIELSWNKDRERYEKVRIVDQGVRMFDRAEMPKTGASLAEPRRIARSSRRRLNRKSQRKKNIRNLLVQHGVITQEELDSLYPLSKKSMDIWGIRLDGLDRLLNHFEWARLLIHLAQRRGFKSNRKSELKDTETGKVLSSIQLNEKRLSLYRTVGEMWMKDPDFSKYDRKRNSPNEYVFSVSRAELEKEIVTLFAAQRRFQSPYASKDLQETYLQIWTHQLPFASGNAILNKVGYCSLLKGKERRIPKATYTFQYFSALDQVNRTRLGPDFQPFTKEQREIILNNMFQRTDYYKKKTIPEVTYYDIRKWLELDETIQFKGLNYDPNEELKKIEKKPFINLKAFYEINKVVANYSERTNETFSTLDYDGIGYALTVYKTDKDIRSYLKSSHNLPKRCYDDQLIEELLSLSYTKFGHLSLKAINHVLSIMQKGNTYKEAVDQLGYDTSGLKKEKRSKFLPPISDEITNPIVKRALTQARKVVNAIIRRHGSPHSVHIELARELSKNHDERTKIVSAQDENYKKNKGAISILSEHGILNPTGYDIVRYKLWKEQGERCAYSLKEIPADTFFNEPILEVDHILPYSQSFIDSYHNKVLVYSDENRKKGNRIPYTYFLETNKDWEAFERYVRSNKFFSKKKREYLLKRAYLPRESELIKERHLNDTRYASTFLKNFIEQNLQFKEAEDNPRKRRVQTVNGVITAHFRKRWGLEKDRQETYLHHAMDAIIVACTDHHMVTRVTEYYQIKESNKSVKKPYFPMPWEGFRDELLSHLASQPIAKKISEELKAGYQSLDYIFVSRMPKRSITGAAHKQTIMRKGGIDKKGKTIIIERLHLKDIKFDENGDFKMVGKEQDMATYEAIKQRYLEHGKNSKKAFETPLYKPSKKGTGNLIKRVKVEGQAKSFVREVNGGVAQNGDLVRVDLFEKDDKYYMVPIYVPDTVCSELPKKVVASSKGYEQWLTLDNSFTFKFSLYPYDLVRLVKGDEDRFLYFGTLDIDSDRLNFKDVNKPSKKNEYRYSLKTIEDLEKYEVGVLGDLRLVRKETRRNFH
From the text: as §1

APG07433.1 = biological target: T4, APG07433.1 (Bacillus sp.); assay: as above
T4 chain: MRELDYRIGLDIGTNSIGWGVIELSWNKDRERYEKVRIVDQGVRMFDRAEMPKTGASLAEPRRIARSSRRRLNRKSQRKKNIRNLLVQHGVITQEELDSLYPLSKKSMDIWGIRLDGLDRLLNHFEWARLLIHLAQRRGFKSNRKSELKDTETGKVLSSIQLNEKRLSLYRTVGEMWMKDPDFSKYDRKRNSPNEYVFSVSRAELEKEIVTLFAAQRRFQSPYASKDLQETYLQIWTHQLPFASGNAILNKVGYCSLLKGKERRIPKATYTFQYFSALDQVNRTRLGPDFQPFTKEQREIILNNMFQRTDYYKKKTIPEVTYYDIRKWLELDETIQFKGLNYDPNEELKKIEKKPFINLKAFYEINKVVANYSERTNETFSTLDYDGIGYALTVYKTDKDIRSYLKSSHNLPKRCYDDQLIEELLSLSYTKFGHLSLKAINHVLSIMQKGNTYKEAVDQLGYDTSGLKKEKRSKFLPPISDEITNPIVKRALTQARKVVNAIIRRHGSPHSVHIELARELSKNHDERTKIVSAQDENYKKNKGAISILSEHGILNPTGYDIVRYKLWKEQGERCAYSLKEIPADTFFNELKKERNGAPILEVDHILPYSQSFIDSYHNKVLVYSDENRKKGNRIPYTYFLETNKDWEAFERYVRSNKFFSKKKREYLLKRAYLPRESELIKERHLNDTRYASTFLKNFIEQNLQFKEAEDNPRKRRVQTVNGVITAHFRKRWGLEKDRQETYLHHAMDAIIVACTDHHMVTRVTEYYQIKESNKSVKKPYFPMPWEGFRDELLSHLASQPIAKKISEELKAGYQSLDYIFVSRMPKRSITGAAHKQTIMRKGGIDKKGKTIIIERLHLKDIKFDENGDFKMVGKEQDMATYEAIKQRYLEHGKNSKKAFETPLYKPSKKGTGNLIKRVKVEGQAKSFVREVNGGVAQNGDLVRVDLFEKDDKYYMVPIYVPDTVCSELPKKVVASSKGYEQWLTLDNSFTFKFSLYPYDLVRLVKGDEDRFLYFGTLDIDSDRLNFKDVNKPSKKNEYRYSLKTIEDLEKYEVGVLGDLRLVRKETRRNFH
From the text: as §1

B1: SGN000930 sgRNA (Table 33) ; SGN000930 target (Table 33) (ssRNA ; dsDNA)
RNA: GAACAACUCAAAUGGAAAUGAAUAUGUCAUAGUUCCAUGAAAGCCAAAAGUGGCUUUGAUGUUUCUAUGAUAAGGGUUUCGGCCCGUGGCGUCGGGGAUCGCCUGCCCAUUCCGAUGGGCUUCUCCCCAUUUAUU
DNA 1: GAACAACTCAAATGGAAATGAATAT
DNA 2: ATATTCATTTCCATTTGAGTTGTTC
- activity (APG08290.1): 9.93%
- activity (APG08290.1-del): 6.47%

B2: SGN000169 sgRNA ; SGN000169 target (ssRNA ; dsDNA)
RNA: CACAUCUCGAGCAAGACGUUGUCAUAGUUCCAUUAAAGCCAAAAGUGGCUUUGAUGUUUCUAUGAUAAGGGUUUCGACCCGUGGCGUCGGGGAUCGCCUGCCCAUUGAAAUGGGCUUCUCCCCAUUUAUU
DNA 1: CACATCTCGAGCAAGACGTT
DNA 2: AACGTCTTGCTCGAGATGTG
- activity [1]: 15.5%
- activity (APG07433.1): 13.4%

B3: SGN000186 sgRNA (Table 32) ; SGN000186 target (Table 32) (ssRNA ; dsDNA)
RNA: GGACAGUGCGCAUCUCCCUGGUCAUAGUUCCAUUAAAGCCAAAAGUGGCUUUGAUGUUUCUAUGAUAAGGGUUUCGACCCGUGGCGUCGGGGAUCGCCUGCCCAUUGAAAUGGGCUUCUCCCCAUUUAUU
DNA 1: GGACAGTGCGCATCTCCCTG
DNA 2: CAGGGAGATGCGCACTGTCC
- activity [1]: 15.2%

B4: SGN000929 sgRNA ; SGN000929 target (ssRNA ; dsDNA)
RNA: AUCUGGAGGGAACUUACAGCAUAUGGUCAUAGUUCCAUGAAAGCCAAAAGUGGCUUUGAUGUUUCUAUGAUAAGGGUUUCGGCCCGUGGCGUCGGGGAUCGCCUGCCCAUUCCGAUGGGCUUCUCCCCAUUUAUU
DNA 1: ATCTGGAGGGAACTTACAGCATATG
DNA 2: CATATGCTGTAAGTTCCCTCCAGAT
- activity (APG08290.1): 1.83%
- activity (APG08290.1-del): 0.61%

B5: SGN000139 sgRNA (Table 32) ; SGN000139 target (Table 32) (ssRNA ; dsDNA)
RNA: AGGUUUUAAUGGCCCAGCCUGUCAUAGUUCCAUUAAAGCCAAAAGUGGCUUUGAUGUUUCUAUGAUAAGGGUUUCGACCCGUGGCGUCGGGGAUCGCCUGCCCAUUGAAAUGGGCUUCUCCCCAUUUAUU
DNA 1: AGGTTTTAATGGCCCAGCCT
DNA 2: AGGCTGGGCCATTAAAACCT
- activity (APG07433.1): 11.1%

Source: patent US20220348894, “DNA MODIFYING ENZYMES AND ACTIVE FRAGMENTS AND VARIANTS THEREOF AND METHODS OF USE” (LifeEDIT Therapeutics, Inc., published 2022)
